Patent US20260273085A1 (HANSOH BIO, published 2026)

T1: human CDH6-His tag (Acro Biosystems, catalog number CA6-H5229) (human, UniProt P55285 54-615)
T1 construct: Bought protein; also called hCDH6; not shown: His tag
T1 sequence (looked up): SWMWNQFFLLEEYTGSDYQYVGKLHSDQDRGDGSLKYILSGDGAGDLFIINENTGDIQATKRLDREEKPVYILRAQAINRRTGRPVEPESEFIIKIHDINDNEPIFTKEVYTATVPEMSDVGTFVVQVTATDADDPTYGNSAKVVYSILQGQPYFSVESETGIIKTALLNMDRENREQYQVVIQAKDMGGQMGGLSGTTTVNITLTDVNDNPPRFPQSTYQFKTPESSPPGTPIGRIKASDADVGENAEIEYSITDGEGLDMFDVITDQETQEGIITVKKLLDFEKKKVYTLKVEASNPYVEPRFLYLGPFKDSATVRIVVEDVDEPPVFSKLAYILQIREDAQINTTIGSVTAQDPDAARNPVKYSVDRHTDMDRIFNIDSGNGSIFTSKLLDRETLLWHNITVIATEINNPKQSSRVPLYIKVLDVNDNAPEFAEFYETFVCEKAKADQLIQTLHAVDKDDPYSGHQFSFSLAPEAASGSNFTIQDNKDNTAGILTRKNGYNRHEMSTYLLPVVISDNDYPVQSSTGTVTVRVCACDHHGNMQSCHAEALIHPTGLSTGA

T2: human CDH16-His tag (Sino biological, catalog number 10915-H08H) (human, UniProt O75309 19-786)
T2 construct: Bought protein; also called hCDH16; not shown: His tag
T2 sequence (looked up): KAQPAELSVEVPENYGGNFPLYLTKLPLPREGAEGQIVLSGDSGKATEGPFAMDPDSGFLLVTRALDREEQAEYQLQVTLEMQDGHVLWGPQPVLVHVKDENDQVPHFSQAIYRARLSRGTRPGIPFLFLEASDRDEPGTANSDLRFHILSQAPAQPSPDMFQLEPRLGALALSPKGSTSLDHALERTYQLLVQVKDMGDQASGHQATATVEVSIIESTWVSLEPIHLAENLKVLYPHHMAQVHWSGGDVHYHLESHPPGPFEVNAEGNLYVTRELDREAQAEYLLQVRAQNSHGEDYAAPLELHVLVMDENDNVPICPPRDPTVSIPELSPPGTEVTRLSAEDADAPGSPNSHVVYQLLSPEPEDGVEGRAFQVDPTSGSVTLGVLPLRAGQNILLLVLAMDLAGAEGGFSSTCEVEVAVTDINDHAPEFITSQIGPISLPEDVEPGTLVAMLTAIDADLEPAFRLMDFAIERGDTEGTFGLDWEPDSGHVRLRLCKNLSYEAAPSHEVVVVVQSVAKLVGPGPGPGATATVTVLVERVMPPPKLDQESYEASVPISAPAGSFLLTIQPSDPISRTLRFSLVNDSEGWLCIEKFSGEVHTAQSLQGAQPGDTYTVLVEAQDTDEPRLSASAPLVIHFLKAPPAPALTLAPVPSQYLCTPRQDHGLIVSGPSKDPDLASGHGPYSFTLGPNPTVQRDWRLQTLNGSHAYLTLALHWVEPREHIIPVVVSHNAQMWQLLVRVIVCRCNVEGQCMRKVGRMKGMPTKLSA


What was measured:
[1] = target: human CDH17 as originally expressed on cancer cells (AsPC1, GP2d and other CDH17 expressing cell lines) (human) (UniProt Q12864); test: flow cytometry on AsPC1 cells, Alexa Fluor 647 labelled antibody
[2] = target: human CDH17 as originally expressed on cancer cells (AsPC1, GP2d and other CDH17 expressing cell lines) (human, UniProt Q12864 23-832); test: cell-based or functional assay
[3] = target: T3, cynomolgus CDH17-His tag (Acro Biosystems, catalog number CA7-C52H4) (cynomolgus, UniProt A0A2K5X8I8 31-795); test: BLI (Octet Red 384), antibody captured on AHC biosensor, antigen 200 nM to 3.1 nM
T3 construct: Bought protein; also called cCDH17; cynomolgus CDH17 protein; not shown: His tag
Experimental: (§1) The affinity between CDH17 antibodies and CDH17 antigens and homologues was determined by Octet (Octet Red 384) instrument. Anti-hIgG Fc Capture (AHC) Biosensors were selected, and the sensors were balanced with buffer solution for 10 min. Subsequently, sensors were dipped into the wells containing 1 μg/ml of CDH17 lead antibodies to load onto the probes. The excess unbound antibodies were washed off. The antigen binding was performed in the wells containing serially diluted human CDH17-His tag (Sino biological, catalog number 11360-H08H), cynomolgus CDH17-His tag (Acro Biosystems, catalog number CA7-C52H4), homologs human CDH6-His tag (Acro Biosystems, catalog number CA6-H5229) and human CDH16-His tag (Sino biological, catalog number 10915-H08H), with concentration ranging from 200 nM to 3.1 nM, for 5 min. Then probes were dipped into wells containing renewed buffer to initiate the dissociation for another 15 min.

[4] = target: T1, human CDH6-His tag (Acro Biosystems, …); test: BLI (Octet Red 384), antibody captured on AHC biosensor
Experimental: as §1

[5] = target: T2, human CDH16-His tag (Sino biological, …); test: as above
Experimental: as §1

T3 sequence (A0A2K5X8I8 entry or part of it, form in doubt): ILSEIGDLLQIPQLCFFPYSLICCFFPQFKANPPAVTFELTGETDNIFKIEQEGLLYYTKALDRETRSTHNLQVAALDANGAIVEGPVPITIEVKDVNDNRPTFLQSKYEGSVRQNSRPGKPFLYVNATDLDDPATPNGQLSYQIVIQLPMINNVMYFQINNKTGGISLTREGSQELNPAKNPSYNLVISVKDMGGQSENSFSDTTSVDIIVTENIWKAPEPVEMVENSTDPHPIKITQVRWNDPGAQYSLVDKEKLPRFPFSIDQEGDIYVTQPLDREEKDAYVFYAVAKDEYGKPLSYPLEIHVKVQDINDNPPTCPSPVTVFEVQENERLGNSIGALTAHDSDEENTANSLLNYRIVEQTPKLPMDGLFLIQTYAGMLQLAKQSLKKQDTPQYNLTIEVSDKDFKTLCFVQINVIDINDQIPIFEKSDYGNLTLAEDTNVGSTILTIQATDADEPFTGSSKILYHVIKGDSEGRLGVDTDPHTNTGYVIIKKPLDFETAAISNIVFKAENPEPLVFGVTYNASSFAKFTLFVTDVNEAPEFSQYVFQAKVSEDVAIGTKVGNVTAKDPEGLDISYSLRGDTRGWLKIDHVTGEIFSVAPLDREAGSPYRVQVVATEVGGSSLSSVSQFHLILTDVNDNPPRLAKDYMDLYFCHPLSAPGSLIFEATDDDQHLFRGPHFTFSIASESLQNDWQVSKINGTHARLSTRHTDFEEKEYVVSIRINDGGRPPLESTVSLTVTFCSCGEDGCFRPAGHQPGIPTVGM

Molecule	IC50 of indirect killing assay (internalization) in AsPC1 cells, complex with Fab anti-human IgG Fc-MMAF [2] [nM]	other results
HBMAB-81, reformatted mAb with the CDH17 binding arm from bispecific antibody BI 905771 and human IgG1 backbone		EC80 [1]: 0.97 nM
4F9 anti-CDH17 recombinant antibody (human IgG1) (antibody, V domains shown) VH: QVQLQESGPGLVKPSGTLSLTCAVSGGSISSSNWWSWVRQPPGKGLEWIGEIYHSGSTSYNPSLKSRVTISVDKSKNQFSLKLSSVTAADTAVYYCARNDWGFPLDCWGQGTLVTVSS VL: DIQMTQSPSSLSASVGDRVTITCRASQSISSYLNWYQQKPGKAPKLLIYAASSLQSGVPSRFSGSGSGTHFTLTISSLQPEDFATYYCQQSHNIPITFGQGTRLEIKR	0.29	
2F9 anti-CDH17 recombinant antibody (human IgG1) (antibody, V domains shown) VH: EVQLVESGGGVVRPGGSLRLSCAASGFTFDDYGMSWVRQAPGKGLEWVSGLSWNGGNTYYADSVKGRFTISRDNAKNSLYLQMNSLRAEDTALYYCARGSRYNWNYDAFDIWGQGTLVTVSS VL: DIQMTQSPSSLSASIGDRVTITCRASQGIRNALGWYQQKPGKAPKRLIYAASNLQSGVPSRFSGSGSGTEFTLTISSLQPEDFATYYCLQHNSYPFTFGPGTKVEIKR	0.14	
9E2 anti-CDH17 recombinant antibody (human IgG1) (antibody, V domains shown) VH: EVQLVESGGGVVRPGGSLRLSCAASGFTFDNYGMSWVRQAPGKGLEWVSGINWNGGSTYYADSVRGRFTISRDNAKNSLYLQMNSLRAEDTALYYCARGSRYNWSYDAFDIWGQGTLVTVSS VL: DIQMTQSPSSLSASVGDRVTITCRASQGVRNALGWYQQKPGKAPKRLIYAASSLQSGVPSRFSGSGSGTEFTLTISSLQPEDFATYYCLQHNSYPFTFGPGTKVEIKR	0.15	
1H10 anti-CDH17 recombinant antibody (human IgG1) (antibody, V domains shown) VH: QVQLVESGGGVVQPGRSLRLSCVASGFTFSSYGMHWVRQAPGKGLEWVTFIWYDGSNKNYADSVKGRFTISRDNSKNTLNLQMNSLRVEDTAVYYCARDRYSSGWDVFDYWGQGTLVTVSS VL: DIQMTQSPSSVSASVGDRVTITCRASQDISSWLAWYQQQPGKAPKLQIYAASSLQSGVPSRFSGSGSGTDFTLTISSLQPEDFATYYCQQAKSFPPTFGQGTKVEIKR	0.19	
10E11 anti-CDH17 recombinant antibody (human IgG1) (antibody, V domains shown, Recombinant human IgG1 / kappa, expressed in CHO or ExpiCHO-S cells) VH: EVQLVQSGTEVKKPGESLKISCKDSGYRFSSYWIGWVRQMPGKGLEWMGIIYPGDSDTRYSPSFQGQVTISADKSISTAYLQWRSLKASDTAMYYCARRGWVNYFDYWGQGTLVTVSS VL: DIQMTQSPSSVSASVGDRVTITCRASQGISNWLGWYQQKPGKAPKLLIYAASSLQSGVPSRFSGSGSGTDFTLTISSLQPEDFATYYCQQANSFPLTFGGGTKVEIKR	0.08	Kd [3]: 15 nM; koff [3]: 0.0012 s⁻¹; kon [3]: 80000 M⁻¹ s⁻¹; binding result [4]: no binding (tested: 200 nM highest antigen concentration); binding result [5]: no binding (tested: 200 nM highest antigen concentration)
15A4 anti-CDH17 recombinant antibody (human IgG1) (antibody, V domains shown) VH: QVQLVESGGGVVQPGRSLRLSCAASGFNFSSYGMHWVRQAPGKGLEWVAFVWYDGSNQNYADSVKGRFTISRDNSNNTLYLQMNSLRAEDTAVYYCARDRYSSGWDVFDYWGQGTLVTVSS VL: DIQMTQSPSSVSASVGDRVTITCRASQGISSWLAWYQQKPGKAPKLLIFAASSLQSGVPSRFSGSGSGTGFTLTISSLQPEDFATYYCQQAKSFPPTFGQGTKVEIKR	1.99	
13C7 anti-CDH17 recombinant antibody (human IgG1) (antibody, V domains shown) VH: QITLKESGPTLVKPTQTLTLTCTFSGFSLSTSGVGVGWIRQPPGKALEWLALIYWNDDKRYRPSLKNRLTITKDTSKNQVVLTMTNMDPVDTATYYCTHYGVTAPFYNWFDPWGQGTLVTVSS VL: DIQMTQSPSSLSASVGDRVTITCRASQSITSYLNWYQQKPGKAPKLLIYAASSLQSGVPSRFSGSGSGTDFTLTISSLQPEDFATYYCQRSYSTLTFGGGTKVEIKR	0.09	
19C7 anti-CDH17 recombinant antibody (human IgG1) (antibody, V domains shown) VH: QITLKESGPTLVKPTQTLTLTCTFSGISLSTGGVGVGWIRQPPGKALEWLSLIYWNDDKRYSPSLKSRLTITKDSSKNQVVLTMTNMDPVDTATYYCAHSGLAAPFYNWFDPWGQGTLVTVSS VL: DIQMTQSPSSLSASVGDRVTITCRASQSISNYLNWYQLKPGNAPKLLIFAASSLQSGVPSRFSGSGSGTDFTLTISSLQPEDFATYFCQRSYSTLTFGGGTKVEIKR	0.09	
17F3 anti-CDH17 recombinant antibody (human IgG1) (antibody, V domains shown) VH: EVQLVESGGGLVKSGGSLRLSCAASGFTFSSYSLKWVRQAPGKGLEWVSSISSSSGYIYYADSVKGRFTISRDNAKNSLYLQMNSLRAEDTAMYYCARAVSTIAARPGYYYYYMDVWGKGTLVTVSS VL: DIQMTQSPSSVSASIGDRVTITCRASQDISTWFAWYQQKPGKAPKLLIYAASTLRSGVPSRFSGSGSGTDFTLTINSLQPEDFATYYCQQANSFPLTFGGGTKVEIKR	0.08	
14B12 anti-CDH17 recombinant antibody (human IgG1) (antibody, V domains shown, Recombinant human IgG1 / kappa, expressed in CHO or ExpiCHO-S cells) VH: QVQLQESGPGLVKPSETLSLTCTVSGGSINTYYRSWIRQPPGKGLEWIGYIYYSGNTNYNPSLKSRVTISADTSKNQFSLNLISVTAADTAMYYCARAQYGEEAFDIWGQGTLVTVSS VL: DIQMTQSPSSLSASVGDRVTITCRASQSITTYLNWYQQKPGKAPQLLIFAASRLQTGVPSRFSGSGSGTDFTLTISSLLPGDFATYYCQQSYNTPPTFGGGTKVEIKR	0.09	binding result [4]: no binding (tested: 200 nM highest antigen concentration); binding result [5]: no binding (tested: 200 nM highest antigen concentration)
